Common to all, as to conditions: SPR per cited protocol (Gsaller 2016; buffer not given), CBC 3.13-200 nM, 1:1 model with mass transport; SEC: 20 mM Tris/HCl, 150 mM NaCl, 1 mM DTT, pH 7.5
In data set [1] the target is Afu_CBC HapE P88L (core) P88L (Aspergillus fumigatus) (UniProt Q4WDM9). Put plainly: SPR.
Data set [2] has as its target Afu_CBC HapE P88L (SPR co-injection construct);HapX bZIP peptide P88L (Aspergillus fumigatus;Aspergillus fumigatus) (UniProt Q4WDM9+Q4WER3). Nature of the data set: SPR co-injection.
Data set [3] deals with An_CBC HapE P88L (Aspergillus nidulans) (UniProt G5EAZ0+Q5B5Z6+Q5AYY8). Nature of the data set: SPR.
Data set [4] has as its target An_CBC wt (HapB/HapC/HapE core) (Aspergillus nidulans) (UniProt G5EAZ0+Q5B5Z6+Q5AYY8). Put plainly: SPR. Background: Surface plasmon resonance follows binding to a sensor surface in real time, without labels.

As a reminder, the Kd is the constant that tells how readily two partners part at equilibrium.

In turn, “AAATCCACCAATCAACGCCTCCGTG (double strand) [Afu_cccA 25 bp SPR duplex]” had a Kd in data set [1] of 0.429 µM.

“AAATCCACCAATCAACGCCTCCGTGATTGTCAGCAAT (double strand) [Afu_cccA SPR co-injection duplex (CBC and HapX sites)]”: the binding signal (fold half-life vs binary P88L CBC-DNA) in data set [2] was 7.

With “ACCCGAGCCAATCAGAGCGAAGTGA (double strand) [An_cccA 25 bp SPR duplex]”, the Kd in data set [1] and in data set [3] was 2 µM throughout.

“GAATTGACCAATCAGAGGTAGGATG (double strand) [An_cycA 25 bp SPR duplex]”: the dissociation constant Kd is 0.1 µM in data set [1], 0.116 µM in data set [3] and 0.00083 µM in data set [4].
